Source: US20240270846A1 (published 2024)

Target: T1, CD3 epsilon homodimer protein (UniProt P07766 23-126)
T1 construct: also called CD3 (CD3 epsilon)
Assay: SPR (Biacore T200), CD3e homodimer on CM4 chip, antibody as analyte; KD ratio vs unaltered GLS3000;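 note: CD3 epsilon homodimer amine-coupled to the sensor surface, antibodies injected as analyte at 25 °C with HBS-EP+ running buffer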

T1 sequence (P07766 23-126): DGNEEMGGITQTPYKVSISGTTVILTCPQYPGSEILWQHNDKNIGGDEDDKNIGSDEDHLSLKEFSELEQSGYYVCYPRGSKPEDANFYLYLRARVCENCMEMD

| Binder | KD ratio to GLS3000 |
| --- | --- |
| CE115HA000/GLS3000 H34W one-arm antibody (antibody, human IgG1, kappa, L234A L235A, N297A, name in Kabat numbering, one-arm IgG1) heavy: QVQLVESGGGVVQPGRSLRLSCAASGFTFSNAWMHWVRQAPGKGLEWVAQIKAKSNNYATYYAESVKGRFTISRDDSKNSLYLQMNSLKTEDTAVYYCRYVHYGAYYGVDAWGQGTTVTVSSASTKGPSVFPLAPSSKSTSGGTAALGCLVKDYFPEPVTVSWNSGALTSGVHTFPAVLQSSGLYSLSSVVTVPSSSLGTQTYICNVNHKPSNTKVDKKVEPKSCDKTHTCPPCPAPEAAGGPSVFLFPPKPKDTLMISRTPEVTCVVVDVSHEDPEVKFNWYVDGVEVHNAKTKPREEQYASTYRVVSVLTVLHQDWLNGKEYKCKVSNKALPAPIEKTISKAKGQPREPQVYTLPPSRCELTKNQVSLSCAVKGFYPSDIAVEWESNGQPENNYKTTPPVLDSDGSFFLVSKLTVDKSRWQQGNVFSCSVMHEALHNHYTQKSLSLSPDYKDDDDK EPKSSDKTHTCPPCPAPELLGGPSVFLFPPKPKDTLMISRTPEVTCVVVDVSHEDPEVKFNWYVDGVEVHNAKTKPREEQYNSTYRVVSVLTVLHQDWLNGKEYKCKVSNKALPAPIEKTISKAKGQPREPQVCTLPPSRDELTKNQVSLWCLVKGFYPSDIAVEWESNGQPENNYKTTPPVLDSDGSFFLYSKLTVDKSRWQQGNVFSCSVMHEALHNRYTQKSLSLSP light: DIVMTQSPLSLPVTPGEPASISCRSSQSLVHSNRNTYLWWYQQKPGQAPRLLIYKVSNRFSGVPDRFSGSGSGTDFTLKISRVEAEDVGVYYCGQGTQVPYTFGQGTKLEIKRTVAAPSVFIFPPSDEQLKSGTASVVCLLNNFYPREAKVQWKVDNALQSGNSQESVTEQDSKDSTYSLSSTLTLSKADYEKHKVYACEVTHQGLSSPVTKSFNRGEC | 8.45 ratio |
| CE115HA000/GLS3000 K50D one-arm antibody (antibody, human IgG1, kappa, L234A L235A, N297A, name in Kabat numbering, one-arm IgG1) heavy: QVQLVESGGGVVQPGRSLRLSCAASGFTFSNAWMHWVRQAPGKGLEWVAQIKAKSNNYATYYAESVKGRFTISRDDSKNSLYLQMNSLKTEDTAVYYCRYVHYGAYYGVDAWGQGTTVTVSSASTKGPSVFPLAPSSKSTSGGTAALGCLVKDYFPEPVTVSWNSGALTSGVHTFPAVLQSSGLYSLSSVVTVPSSSLGTQTYICNVNHKPSNTKVDKKVEPKSCDKTHTCPPCPAPEAAGGPSVFLFPPKPKDTLMISRTPEVTCVVVDVSHEDPEVKFNWYVDGVEVHNAKTKPREEQYASTYRVVSVLTVLHQDWLNGKEYKCKVSNKALPAPIEKTISKAKGQPREPQVYTLPPSRCELTKNQVSLSCAVKGFYPSDIAVEWESNGQPENNYKTTPPVLDSDGSFFLVSKLTVDKSRWQQGNVFSCSVMHEALHNHYTQKSLSLSPDYKDDDDK EPKSSDKTHTCPPCPAPELLGGPSVFLFPPKPKDTLMISRTPEVTCVVVDVSHEDPEVKFNWYVDGVEVHNAKTKPREEQYNSTYRVVSVLTVLHQDWLNGKEYKCKVSNKALPAPIEKTISKAKGQPREPQVCTLPPSRDELTKNQVSLWCLVKGFYPSDIAVEWESNGQPENNYKTTPPVLDSDGSFFLYSKLTVDKSRWQQGNVFSCSVMHEALHNRYTQKSLSLSP light: DIVMTQSPLSLPVTPGEPASISCRSSQSLVHSNRNTYLHWYQQKPGQAPRLLIYDVSNRFSGVPDRFSGSGSGTDFTLKISRVEAEDVGVYYCGQGTQVPYTFGQGTKLEIKRTVAAPSVFIFPPSDEQLKSGTASVVCLLNNFYPREAKVQWKVDNALQSGNSQESVTEQDSKDSTYSLSSTLTLSKADYEKHKVYACEVTHQGLSSPVTKSFNRGEC | 114 ratio |
| CE115HA000/GLS3000 H34Y one-arm antibody (antibody, human IgG1, kappa, L234A L235A, N297A, name in Kabat numbering, one-arm IgG1) heavy: QVQLVESGGGVVQPGRSLRLSCAASGFTFSNAWMHWVRQAPGKGLEWVAQIKAKSNNYATYYAESVKGRFTISRDDSKNSLYLQMNSLKTEDTAVYYCRYVHYGAYYGVDAWGQGTTVTVSSASTKGPSVFPLAPSSKSTSGGTAALGCLVKDYFPEPVTVSWNSGALTSGVHTFPAVLQSSGLYSLSSVVTVPSSSLGTQTYICNVNHKPSNTKVDKKVEPKSCDKTHTCPPCPAPEAAGGPSVFLFPPKPKDTLMISRTPEVTCVVVDVSHEDPEVKFNWYVDGVEVHNAKTKPREEQYASTYRVVSVLTVLHQDWLNGKEYKCKVSNKALPAPIEKTISKAKGQPREPQVYTLPPSRCELTKNQVSLSCAVKGFYPSDIAVEWESNGQPENNYKTTPPVLDSDGSFFLVSKLTVDKSRWQQGNVFSCSVMHEALHNHYTQKSLSLSPDYKDDDDK EPKSSDKTHTCPPCPAPELLGGPSVFLFPPKPKDTLMISRTPEVTCVVVDVSHEDPEVKFNWYVDGVEVHNAKTKPREEQYNSTYRVVSVLTVLHQDWLNGKEYKCKVSNKALPAPIEKTISKAKGQPREPQVCTLPPSRDELTKNQVSLWCLVKGFYPSDIAVEWESNGQPENNYKTTPPVLDSDGSFFLYSKLTVDKSRWQQGNVFSCSVMHEALHNRYTQKSLSLSP light: DIVMTQSPLSLPVTPGEPASISCRSSQSLVHSNRNTYLYWYQQKPGQAPRLLIYKVSNRFSGVPDRFSGSGSGTDFTLKISRVEAEDVGVYYCGQGTQVPYTFGQGTKLEIKRTVAAPSVFIFPPSDEQLKSGTASVVCLLNNFYPREAKVQWKVDNALQSGNSQESVTEQDSKDSTYSLSSTLTLSKADYEKHKVYACEVTHQGLSSPVTKSFNRGEC | 2.44 ratio |

Results, then the binder that gave them:

| KD ratio to GLS3000 | Binder |
| --- | --- |
| 42.4 ratio | CE115HA000/GLS3000 K50G one-arm antibody (antibody, human IgG1, kappa, L234A L235A, N297A, name in Kabat numbering, one-arm IgG1) heavy: QVQLVESGGGVVQPGRSLRLSCAASGFTFSNAWMHWVRQAPGKGLEWVAQIKAKSNNYATYYAESVKGRFTISRDDSKNSLYLQMNSLKTEDTAVYYCRYVHYGAYYGVDAWGQGTTVTVSSASTKGPSVFPLAPSSKSTSGGTAALGCLVKDYFPEPVTVSWNSGALTSGVHTFPAVLQSSGLYSLSSVVTVPSSSLGTQTYICNVNHKPSNTKVDKKVEPKSCDKTHTCPPCPAPEAAGGPSVFLFPPKPKDTLMISRTPEVTCVVVDVSHEDPEVKFNWYVDGVEVHNAKTKPREEQYASTYRVVSVLTVLHQDWLNGKEYKCKVSNKALPAPIEKTISKAKGQPREPQVYTLPPSRCELTKNQVSLSCAVKGFYPSDIAVEWESNGQPENNYKTTPPVLDSDGSFFLVSKLTVDKSRWQQGNVFSCSVMHEALHNHYTQKSLSLSPDYKDDDDK EPKSSDKTHTCPPCPAPELLGGPSVFLFPPKPKDTLMISRTPEVTCVVVDVSHEDPEVKFNWYVDGVEVHNAKTKPREEQYNSTYRVVSVLTVLHQDWLNGKEYKCKVSNKALPAPIEKTISKAKGQPREPQVCTLPPSRDELTKNQVSLWCLVKGFYPSDIAVEWESNGQPENNYKTTPPVLDSDGSFFLYSKLTVDKSRWQQGNVFSCSVMHEALHNRYTQKSLSLSP light: DIVMTQSPLSLPVTPGEPASISCRSSQSLVHSNRNTYLHWYQQKPGQAPRLLIYGVSNRFSGVPDRFSGSGSGTDFTLKISRVEAEDVGVYYCGQGTQVPYTFGQGTKLEIKRTVAAPSVFIFPPSDEQLKSGTASVVCLLNNFYPREAKVQWKVDNALQSGNSQESVTEQDSKDSTYSLSSTLTLSKADYEKHKVYACEVTHQGLSSPVTKSFNRGEC |
| 57.2 ratio | CE115HA000/GLS3000 K50E one-arm antibody (antibody, human IgG1, kappa, L234A L235A, N297A, name in Kabat numbering, one-arm IgG1) heavy: QVQLVESGGGVVQPGRSLRLSCAASGFTFSNAWMHWVRQAPGKGLEWVAQIKAKSNNYATYYAESVKGRFTISRDDSKNSLYLQMNSLKTEDTAVYYCRYVHYGAYYGVDAWGQGTTVTVSSASTKGPSVFPLAPSSKSTSGGTAALGCLVKDYFPEPVTVSWNSGALTSGVHTFPAVLQSSGLYSLSSVVTVPSSSLGTQTYICNVNHKPSNTKVDKKVEPKSCDKTHTCPPCPAPEAAGGPSVFLFPPKPKDTLMISRTPEVTCVVVDVSHEDPEVKFNWYVDGVEVHNAKTKPREEQYASTYRVVSVLTVLHQDWLNGKEYKCKVSNKALPAPIEKTISKAKGQPREPQVYTLPPSRCELTKNQVSLSCAVKGFYPSDIAVEWESNGQPENNYKTTPPVLDSDGSFFLVSKLTVDKSRWQQGNVFSCSVMHEALHNHYTQKSLSLSPDYKDDDDK EPKSSDKTHTCPPCPAPELLGGPSVFLFPPKPKDTLMISRTPEVTCVVVDVSHEDPEVKFNWYVDGVEVHNAKTKPREEQYNSTYRVVSVLTVLHQDWLNGKEYKCKVSNKALPAPIEKTISKAKGQPREPQVCTLPPSRDELTKNQVSLWCLVKGFYPSDIAVEWESNGQPENNYKTTPPVLDSDGSFFLYSKLTVDKSRWQQGNVFSCSVMHEALHNRYTQKSLSLSP light: DIVMTQSPLSLPVTPGEPASISCRSSQSLVHSNRNTYLHWYQQKPGQAPRLLIYEVSNRFSGVPDRFSGSGSGTDFTLKISRVEAEDVGVYYCGQGTQVPYTFGQGTKLEIKRTVAAPSVFIFPPSDEQLKSGTASVVCLLNNFYPREAKVQWKVDNALQSGNSQESVTEQDSKDSTYSLSSTLTLSKADYEKHKVYACEVTHQGLSSPVTKSFNRGEC |
